Measured values from IntAct's records for PubMed 20711168.

B1: Dynamin-2 (Rattus norvegicus (Rat)), P39052 (parent)
chain: MGNRGMEELIPLVNKLQDAFSSIGQSCHLDLPQIAVVGGQSAGKSSVLENFVGRDFLPRGSGIVTRRPLILQLIFSKTEYAEFLHCKSKKFTDFDEVRQEIEAETDRVTGTNKGISPVPINLRVYSPHVLNLTLIDLPGITKVPVGDQPPDIEYQIKDMILQFISRESSLILAVTPANMDLANSDALKLAKEVDPQGLRTIGVITKLDLMDEGTDARDVLENKLLPLRRGYIGVVNRSQKDIEGRKDIRAALAAERKFFLSHPAYRHMADRMGTPHLQKTLNQQLTNHIRESLPTLRSKLQSQLLSLEKEVEEYKNFRPDDPTRKTKALLQMVQQFGVDFEKRIEGSGDQVDTLELSGGARINRIFHERFPFELVKMEFDEKDLRREISYAIKNIHGVRTGLFTPDLAFEAIVKKQVVKLKEPCLKCVDLVIQELISTVRQCTSKLSSYPRLREETERIVTTYIREREGRTKDQILLLIDIEQSYINTNHEDFIGFANAQQRSTQLNKKRAIPNQGEILVIRRGWLTINNISLMKGGSKEYWFVLTAESLSWYKDEEEKEKKYMLPLDNLKIRDVEKGFMSNKHVFAIFNTEQRNVYKDLRQIELACDSQEDVDSWKASFLRAGVYPEKDQAENEDGAQENTFSMDPQLERQVETIRNLVDSYVAIINKSIRDLMPKTIMHLMINNTKAFIHHELLAYLYSSADQSSLMEESAEQAQRRDDMLRMYHALKEALNIIGDISTSTVSTPVPPPVDDTWLQNTSSHSPTPQRRPVSSVHPPGRPPAVRGPTPGPPLIPMPVGATSSFSAPPIPSRPGPQNVFANNDPFSAPPQIPSRPARIPPGIPPGVPSRRAPAAPSRPTIIRPAEPSLLD

Variants of: B1
Conditions: with sh3k1_human SH3KBP1, Q96B97
Chain of sh3k1_human SH3KBP1, Q96B97 (Q96B97 whole entry): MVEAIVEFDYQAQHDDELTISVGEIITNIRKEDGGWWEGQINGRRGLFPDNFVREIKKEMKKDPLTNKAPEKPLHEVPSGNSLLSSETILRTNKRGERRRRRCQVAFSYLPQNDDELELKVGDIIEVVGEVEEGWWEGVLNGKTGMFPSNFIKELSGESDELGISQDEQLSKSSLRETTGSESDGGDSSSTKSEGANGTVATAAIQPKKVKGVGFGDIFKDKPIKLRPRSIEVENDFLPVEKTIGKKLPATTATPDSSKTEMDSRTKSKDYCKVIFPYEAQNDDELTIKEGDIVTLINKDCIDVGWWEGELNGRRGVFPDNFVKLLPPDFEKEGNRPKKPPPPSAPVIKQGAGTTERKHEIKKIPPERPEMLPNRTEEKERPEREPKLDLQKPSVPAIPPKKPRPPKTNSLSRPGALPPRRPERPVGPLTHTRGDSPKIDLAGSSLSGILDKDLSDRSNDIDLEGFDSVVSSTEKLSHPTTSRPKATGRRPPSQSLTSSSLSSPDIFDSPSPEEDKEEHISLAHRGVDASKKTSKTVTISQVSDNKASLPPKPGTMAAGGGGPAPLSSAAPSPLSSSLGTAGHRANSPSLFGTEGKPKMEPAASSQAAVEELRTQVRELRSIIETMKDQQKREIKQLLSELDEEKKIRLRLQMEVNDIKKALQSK

Variant	effect of a mutation on the interaction
P765A	disrupting interaction
P767A	disrupting interaction
